The results in this text go back to PMC12087824 (2025).

The target of this experiment is human CD40 receptor (hCD40) (human, UniProt P25942 21-277). The experiment is described as follows: BLI. On the technique in general: In BLI a coated tip is dipped into the sample, and binding shifts an interference pattern.
Chain of human CD40 receptor (hCD40) (P25942 21-277): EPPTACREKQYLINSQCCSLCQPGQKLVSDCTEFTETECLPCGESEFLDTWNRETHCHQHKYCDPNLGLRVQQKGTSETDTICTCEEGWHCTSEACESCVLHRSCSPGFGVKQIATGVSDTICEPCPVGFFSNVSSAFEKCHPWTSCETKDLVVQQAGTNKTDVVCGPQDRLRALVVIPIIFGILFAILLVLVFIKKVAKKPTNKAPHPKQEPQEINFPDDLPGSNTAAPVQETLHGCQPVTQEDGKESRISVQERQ

B1: DARPin WT_(CD40) binding the human CD40 receptor (designed binder)
chain: GSDLGKKLLQAARAGQLDEVRELLKAGADVNAKDTWGFTPLHIAAESGHLEIVEVLLKAGADVNAKDVQGRTPLHIAAHSGHLEIVEVLLKAGADVNAKDFRGWTPLHLAAWSGHLEIVEILLKAGADVNAQDKSGKTPADLAARAGHQDIAEVLQKAA
B1: the Kd was 288 nM.

As usually defined, the Kd is the equilibrium constant for the complex coming apart.
